According to patent US20070054846A1, “Bcl-w structure and uses therefor” (priority 2002, published 2007):

What was measured:
BimLΔC27 [1] = biological target: T1, BimLΔC27 (mouse, UniProt O54918-2 1-113); test: SPR (BIAcore 2000), BimLΔC27 immobilised
T1 construct: Truncation by 27 C-terminal residues is stated, the end residue is not; Numbering (L94) is that of the BimL isoform, not of the canonical BimEL entry; Immobilised on the CM5 chip in SPR; soluble protein in GST pull-downs; also called C-terminally truncated BimL; wt BimLΔC27
T1 sequence: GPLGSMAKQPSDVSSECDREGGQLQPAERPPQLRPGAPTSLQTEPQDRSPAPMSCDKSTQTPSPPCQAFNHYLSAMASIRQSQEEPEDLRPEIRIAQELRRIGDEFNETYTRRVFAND
Experimental: (§1) Similar results were obtained when a corresponding mutation (L138A) was introduced into another BH3-only protein, Bmf (not shown).
(§2) Analysis of protein interactions by surface plasmon resonance was carried out on a BIAcore 2000 biosensor (BIAcore). For the immobilisation to BIAcore CM 5 sensorchips (BIAcore), wild-type or mutant Bim proteins were buffer exchanged into 20 mM Na-acetate, pH 4.5. N-hydroxysuccinimide coupling and binding analysis was done as described previously (Lackmann et al., 1997). In order to minimise mass-transport mediated effects the kinetic experiments were routinely carried out at 20 μl/min. Bcl-w binding at concentrations between 2 and 0.03 μM in running buffer (10 mM HEPES, pH 7.4, 150 mM NaCl, 3.4 mM EDTA, 0.005% Tween 20) was performed on sensorchip surfaces derivatised on parallel channels with a non-relevant protein, BimLΔC27 and BimLΔC27-L94A. The binding kinetics were derived from the sensorgrams following subtraction of baseline responses (measured on the control channel) by ‘global analysis’ using the BIA Evaluation software (vers. 3.02, BIAcore).

BimLΔC27-L94A [2] = biological target: T2, BimLΔC27-L94A (mouse, UniProt O54918-2 1-113); test: SPR (BIAcore 2000), global fit to a 1:1 Langmuir model. Sheet heads Bcl-w 'Immobilized' and Bim 'Analyte'; text says Bim immobilised, Bcl-w in solution
T2 construct: also called Bim containing the L94 mutation; L94A mutant
T2 sequence: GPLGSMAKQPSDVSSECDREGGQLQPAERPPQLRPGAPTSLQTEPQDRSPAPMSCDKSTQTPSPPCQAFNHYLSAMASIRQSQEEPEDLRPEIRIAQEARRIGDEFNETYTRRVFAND
Experimental: (§3) FIG. 3A is a table showing the binding constants for various Bcl-w-BH3-only ligand complexes, which were determined using Biosensor experiments as described herein. FIG. 3B is a graphical representation showing the interaction kinetics of Bcl-w binding to BimLΔC27. Samples of serially diluted Bcl-w (2 μM-62.5 nM) were analysed on a BimLΔC27 sensor surface as described in Experimental Procedures. […] FIG. 3C is a graphical representation showing the interaction kinetics of Bcl-w or Bcl-wΔC29 binding to BimLΔC27 or BimLΔC27-L94A. […] Relative responses of samples between 1 μM and 62.5 nM are shown. FIG. 3D is a photographic representation of a GST pull-down assay to assess the binding capacity of Bcl-w proteins. Approximately equivalent amounts of the indicated GST-Bcl-w proteins were mixed with either soluble wt BimLΔC27 or soluble BimLΔC27-L94A. The intensity of the Bim band indicated the amount of protein that bound to Bcl-w. Molecular weight standards in kDa are indicated.
as §2, with “3.02, BIAcore). The surface of the chip was regenerated with 50 mM 1,2-diethylamine containing 0.1% Triton X100, followed by two washes with running buffer.” for “3.02, BIAcore).”

BimLΔC27 [3] = biological target: T1, BimLΔC27; test: as above
Experimental: as §3
as §2, with “3.02, BIAcore). The surface of the chip was regenerated with 50 mM 1,2-diethylamine containing 0.1% Triton X100, followed by two washes with running buffer.” for “3.02, BIAcore).”

BimLΔC27-L94A [4] = biological target: T2, BimLΔC27-L94A; test: SPR (BIAcore 2000), BimLΔC27-L94A immobilised; Bcl-w truncated by 29 residues (Bcl-wΔC29)
Experimental: as §1, §2

Bim = biological target: T3, Bim (UniProt O54918-2 1-140, limits assumed); test: not described
T3 construct: also called BH3-only protein Bim
T3 sequence (looked up): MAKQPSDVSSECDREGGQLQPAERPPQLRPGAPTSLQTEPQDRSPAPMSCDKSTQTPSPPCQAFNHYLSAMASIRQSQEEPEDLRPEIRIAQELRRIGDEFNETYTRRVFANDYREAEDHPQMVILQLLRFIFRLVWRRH

BimLΔC27 [5] = biological target: T1, BimLΔC27; test: SPR (BIAcore 2000), BimLΔC27 immobilised, Bcl-w in solution, global 1:1 Langmuir fit
Experimental: as §1, §2

BimLΔC27-L94A [6] = biological target: T2, BimLΔC27-L94A; test: SPR (BIAcore 2000), BimLΔC27-L94A immobilised, Bcl-w in solution; full-length Bcl-w
Experimental: as §1, §2

BimLΔC27-L94A [7] = biological target: T2, BimLΔC27-L94A; test: SPR (BIAcore 2000)
Experimental: as §1, §2

Bim-BH3 peptide = biological target: T4, Bim-BH3 peptide (mouse); test: NMR, 15N-NOESY-HSQC chemical shift changes
T4 peptide: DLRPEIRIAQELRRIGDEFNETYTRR

[8] = biological target: T5, FLAG Bcl-xL (full-length) (UniProt Q07817 1-233); test: co-immunoprecipitation from 35S-labelled 293T lysates with anti-FLAG (α-F), anti-EE (α-E) and control anti-HA (α-H) [upper right gel]
T5 construct: also called FLAG-tagged full-length Bcl-xL; not shown: FLAG tag
T5 sequence (Q07817 whole entry): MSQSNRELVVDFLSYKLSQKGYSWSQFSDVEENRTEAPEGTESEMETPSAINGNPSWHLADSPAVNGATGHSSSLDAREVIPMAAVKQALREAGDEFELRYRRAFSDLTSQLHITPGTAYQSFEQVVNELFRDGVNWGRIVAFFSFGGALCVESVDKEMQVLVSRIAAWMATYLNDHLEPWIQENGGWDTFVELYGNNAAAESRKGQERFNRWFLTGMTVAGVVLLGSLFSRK
Description: FIG. 4 comprises photographic representations showing that the in vivo and in vitro binding properties of Bcl-xL resemble that of Bcl-w. FIG. 4A is a photographic representation showing that the C-terminus of Bcl-w restricts access to the binding groove in vivo. Equivalent ³⁵S-labeled 293T lysates obtained from cells co-expressing FLAG Bcl-w or Bcl-wΔC29, and EE-BimEL or BimEL-L150A, were immunoprecipitated using the anti-FLAG M2 (α-F), anti-EE (α-E) or control anti-HA (α-H) monoclonal antibodies. The immunoprecipitations were fractionated on SDS-PAGE gels. FIG. 4B is a photographic representation showing that the C-terminus of Bcl-xL restricts access to the binding groove in vivo. Co-precipitation experiments similar to those described in FIG. 4A using lysates from cells co-expressing FLAG Bcl-xL or Bcl-xLΔC24, and EE-BimL or BimL-L94A. […]
Cell culture, stable transfections into FDC-P1, transient transfections into 293T human embryonic kidney cells, metabolic labelling with ³⁵S-methionine/cysteine (NEN) and co-immunoprecipitation have been previously described (O'Connor et al., 1998, Moriishi et al., 1999; Huang et al., 1998; Wilson-Annan et al., 2003). […] The immunoprecipitates were resolved by SDS-PAGE (Novex), transferred onto nitrocellulose membranes (APB) and the proteins detected by fluorography (Amplify; APB).

B1: Bcl-wΔC29 (purified recombinant protein) (other)
chain: GPLGSMATPASAPDTRALVADFVGYKLRQKGYVCGAGPGEGPAADPLHQAMRAAGDEFETRFRRTFSDLAAQLHVTPGSAQQRFTQVSDELFQGGPNWGRLVAFFVFGAALCAESVNKEMEPLVGQVQEWMVAYLETRLADWIHSSGGWAEFTALYGDGALEEARRLRE
notes: Residue limits 1-164 follow from 193 aa minus 29; also called Bcl-w truncated by 29 residues at the C-terminus
For B1, the Kd (BimLΔC27 [1]) was 11 nM, the “fold increase in the association rate against full-length Bcl-w” value (BimLΔC27 [1]) was 3 fold and the koff (BimLΔC27-L94A [2]) was 0.0028 s⁻¹. It also gave a kon (BimLΔC27-L94A [2]) of 210000 M⁻¹ s⁻¹, a koff (BimLΔC27 [3]) of 0.0061 s⁻¹ and a kon (BimLΔC27 [3]) of 570000 M⁻¹ s⁻¹. The Kd (BimLΔC27-L94A [4]) was 13 nM.

B2: Bcl-w with Arg95 mutated to Ala (other)
chain: MATPASAPDTRALVADFVGYKLRQKGYVCGAGPGEGPAADPLHQAMRAAGDEFETRFRRTFSDLAAQLHVTPGSAQQRFTQVSDELFQGGPNWGALVAFFVFGAALCAESVNKEMEPLVGQVQEWMVAYLETRLADWIHSSGGWAEFTALYGDGALEEARRLREGNWASVRTVLTGAVALGALVTVGAFFASK
notes: Construct and assay not described; also called Bcl-w R95A
B2: no binding (Bim).

B3: Bcl-w (full-length, purified recombinant protein) (other)
chain: GPLGSMATPASAPDTRALVADFVGYKLRQKGYVCGAGPGEGPAADPLHQAMRAAGDEFETRFRRTFSDLAAQLHVTPGSAQQRFTQVSDELFQGGPNWGRLVAFFVFGAALCAESVNKEMEPLVGQVQEWMVAYLETRLADWIHSSGGWAEFTALYGDGALEEARRLREGNWASVRTVLTGAVALGALVTVGAFFASK
notes: Expressed as GST fusion in E. coli, released with PreScission protease; analyte in solution in the BIAcore experiments; also called full length Bcl-w; wild-type Bcl-w
Work on B3 yielded a Kd (BimLΔC27 [5]) of 24 nM, a koff (BimLΔC27-L94A [2]) of 0.02 s⁻¹ and a kon (BimLΔC27-L94A [2]) of 13000 M⁻¹ s⁻¹. The koff (BimLΔC27 [3]) was 0.0043 s⁻¹, the kon (BimLΔC27 [3]) was 180000 M⁻¹ s⁻¹ and the Kd (BimLΔC27-L94A [6]) was 1600 nM. The “fold decrease in the association rate against BimLΔC27” value (BimLΔC27-L94A [7]) was 10 fold, the “fold increase in the dissociation rate against BimLΔC27” value (BimLΔC27-L94A [7]) was 5 fold and the “fold reduction of affinity against BimLΔC27” value (BimLΔC27-L94A [7]) was over 60 fold.

B4: Bcl-wΔC10 (A128E), purified, NMR sample (other)
chain: GPLGSMATPASAPDTRALVADFVGYKLRQKGYVCGAGPGEGPAADPLHQAMRAAGDEFETRFRRTFSDLAAQLHVTPGSAQQRFTQVSDELFQGGPNWGRLVAFFVFGAALCAESVNKEMEPLVGQVQEWMVEYLETRLADWIHSSGGWAEFTALYGDGALEEARRLREGNWASVRTVLTGAVALGAL
notes: Isotope-labelled (15N) protein for the NOESY-HSQC with the Bim-BH3 peptide
B4: binds (Bim-BH3 peptide).

B5: EE-BimL-L94A (ligand, UniProt O54918-2 1-140, looked up)
chain: MAKQPSDVSSECDREGGQLQPAERPPQLRPGAPTSLQTEPQDRSPAPMSCDKSTQTPSPPCQAFNHYLSAMASIRQSQEEPEDLRPEIRIAQEARRIGDEFNETYTRRVFANDYREAEDHPQMVILQLLRFIFRLVWRRH
notes: also called L94A mutant; not shown: EE (Glu-Glu) tag
B5: no binding [8].
